± gives the standard error.
assay: background-corrected fluorescence of 3'-dye-labeled ssDNA relative to brightest sequence (3'-GCGCG) (fraction); higher = brighter dye fluorescence (less quenching); settings: dye: Cy3 (3' terminal)
Summary of the method: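 Each of 1024 permuted pentamers was synthesized as single-stranded DNA on glass slides by light-directed phosphoramidite chemistry, with a 3' Cy3 or Cy5 dye alongside. Arrays were scanned at 532 or 635 nm before and after overnight deprotection with ethylenediamine/ethanol. Values average 10 features per array across at least 3 syntheses. The fluorescence readout, with unlabeled-oligo background removed, is given relative to the brightest sequence.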

Sequence	background-corrected fluorescence
TTTTTTGATCATCATCATGATTTTTTTTTTTTTTTCGGGC	0.576 ± 0.032
TTTTTTGATCATCATCATGCTTTTTTTTTTTTTTTCGGGA [AGGGC]	0.7 ± 0.0078
TTTTTTGATCATCATGAGCATTTTTTTTTTTTTTTCGGCT	0.583 ± 0.016
TTTTTTGATCATCATGATCATTTTTTTTTTTTTTTCGGCG [GCGGC]	0.704 ± 0.027
TTTTTTGATCATCATGATGATTTTTTTTTTTTTTTCGGCC [CCGGC]	0.465 ± 0.022
TTTTTTGATCATCATGATGCTTTTTTTTTTTTTTTCGGCA [ACGGC]	0.612 ± 0.015
TTTTTTGATCATCATGCGCATTTTTTTTTTTTTTTCGGAT [TAGGC]	0.593 ± 0.017
TTTTTTGATCATCATGCTCATTTTTTTTTTTTTTTCGGAG [GAGGC]	0.603 ± 0.02
TTTTTTGATCATCATGCTGATTTTTTTTTTTTTTTCGGAC [CAGGC]	0.531 ± 0.011
TTTTTTGATCATCATGCTGCTTTTTTTTTTTTTTTCGGAA [AAGGC]	0.656 ± 0.032
TTTTTTGATCATGAGCAGCATTTTTTTTTTTTTTTCGCTT	0.51 ± 0.017
TTTTTTGATCATGAGCATCATTTTTTTTTTTTTTTCGCTG [GTCGC]	0.534 ± 0.014
TTTTTTGATCATGAGCATGATTTTTTTTTTTTTTTCGCTC [CTCGC]	0.452 ± 0.039
TTTTTTGATCATGAGCATGCTTTTTTTTTTTTTTTCGCTA [ATCGC]	0.549 ± 0.026
TTTTTTGATCATGATCAGCATTTTTTTTTTTTTTTCGCGT [TGCGC]	0.783 ± 0.029
TTTTTTGATCATGATCATCATTTTTTTTTTTTTTTCGCGG [GGCGC]	0.814 ± 0.019
TTTTTTGATCATGATCATGATTTTTTTTTTTTTTTCGCGC	0.759 ± 0.032
TTTTTTGATCATGATCATGCTTTTTTTTTTTTTTTCGCGA [AGCGC]	0.823 ± 0.027
TTTTTTGATCATGATGAGCATTTTTTTTTTTTTTTCGCCT [TCCGC]	0.488 ± 0.028
TTTTTTGATCATGATGATCATTTTTTTTTTTTTTTCGCCG [GCCGC]	0.647 ± 0.017
TTTTTTGATCATGATGATGATTTTTTTTTTTTTTTCGCCC [CCCGC]	0.406 ± 0.032
TTTTTTGATCATGATGATGCTTTTTTTTTTTTTTTCGCCA [ACCGC]	0.49 ± 0.03
TTTTTTGATCATGATGCGCATTTTTTTTTTTTTTTCGCAT [TACGC]	0.517 ± 0.0084

Sequence	background-corrected fluorescence
TTTTTTGATCATGATGCTCATTTTTTTTTTTTTTTCGCAG [GACGC]	0.595 ± 0.025
TTTTTTGATCATGATGCTGATTTTTTTTTTTTTTTCGCAC [CACGC]	0.435 ± 0.025
TTTTTTGATCATGATGCTGCTTTTTTTTTTTTTTTCGCAA [AACGC]	0.552 ± 0.031
TTTTTTGATCATGCGCAGCATTTTTTTTTTTTTTTCGATT [TTAGC]	0.602 ± 0.031
TTTTTTGATCATGCGCATCATTTTTTTTTTTTTTTCGATG [GTAGC]	0.552 ± 0.021
TTTTTTGATCATGCGCATGATTTTTTTTTTTTTTTCGATC [CTAGC]	0.457 ± 0.018
TTTTTTGATCATGCGCATGCTTTTTTTTTTTTTTTCGATA [ATAGC]	0.595 ± 0.036
TTTTTTGATCATGCTCAGCATTTTTTTTTTTTTTTCGAGT [TGAGC]	0.684 ± 0.026
TTTTTTGATCATGCTCATCATTTTTTTTTTTTTTTCGAGG [GGAGC]	0.723 ± 0.029
TTTTTTGATCATGCTCATGATTTTTTTTTTTTTTTCGAGC	0.547 ± 0.018
TTTTTTGATCATGCTCATGCTTTTTTTTTTTTTTTCGAGA [AGAGC]	0.695 ± 0.032
TTTTTTGATCATGCTGAGCATTTTTTTTTTTTTTTCGACT [TCAGC]	0.488 ± 0.019
TTTTTTGATCATGCTGATCATTTTTTTTTTTTTTTCGACG [GCAGC]	0.602 ± 0.013
TTTTTTGATCATGCTGATGATTTTTTTTTTTTTTTCGACC [CCAGC]	0.4 ± 0.016
TTTTTTGATCATGCTGATGCTTTTTTTTTTTTTTTCGACA [ACAGC]	0.512 ± 0.028
TTTTTTGATCATGCTGCGCATTTTTTTTTTTTTTTCGAAT [TAAGC]	0.599 ± 0.04
TTTTTTGATCATGCTGCTCATTTTTTTTTTTTTTTCGAAG [GAAGC]	0.609 ± 0.013
TTTTTTGATCATGCTGCTGATTTTTTTTTTTTTTTCGAAC [CAAGC]	0.48 ± 0.039
TTTTTTGATCATGCTGCTGCTTTTTTTTTTTTTTTCGAAA [AAAGC]	0.576 ± 0.032
TTTTTTGATGAGCAGCAGCATTTTTTTTTTTTTTTCCTTT	0.492 ± 0.016
TTTTTTGATGAGCAGCATCATTTTTTTTTTTTTTTCCTTG [GTTCC]	0.547 ± 0.021
TTTTTTGATGAGCAGCATGATTTTTTTTTTTTTTTCCTTC [CTTCC]	0.362 ± 0.03
TTTTTTGATGAGCAGCATGCTTTTTTTTTTTTTTTCCTTA [ATTCC]	0.513 ± 0.023

Sequence	background-corrected fluorescence
TTTTTTGATGAGCATCAGCATTTTTTTTTTTTTTTCCTGT [TGTCC]	0.584 ± 0.0059
TTTTTTGATGAGCATCATCATTTTTTTTTTTTTTTCCTGG [GGTCC]	0.557 ± 0.023
TTTTTTGATGAGCATCATGATTTTTTTTTTTTTTTCCTGC [CGTCC]	0.485 ± 0.028
TTTTTTGATGAGCATCATGCTTTTTTTTTTTTTTTCCTGA [AGTCC]	0.592 ± 0.034
TTTTTTGATGAGCATGAGCATTTTTTTTTTTTTTTCCTCT [TCTCC]	0.431 ± 0.012
TTTTTTGATGAGCATGATCATTTTTTTTTTTTTTTCCTCG [GCTCC]	0.471 ± 0.02
TTTTTTGATGAGCATGATGATTTTTTTTTTTTTTTCCTCC	0.342 ± 0.03
TTTTTTGATGAGCATGATGCTTTTTTTTTTTTTTTCCTCA [ACTCC]	0.493 ± 0.0056
TTTTTTGATGAGCATGCGCATTTTTTTTTTTTTTTCCTAT [TATCC]	0.486 ± 0.018
TTTTTTGATGAGCATGCTCATTTTTTTTTTTTTTTCCTAG [GATCC]	0.532 ± 0.019
TTTTTTGATGAGCATGCTGATTTTTTTTTTTTTTTCCTAC [CATCC]	0.45 ± 0.02
TTTTTTGATGAGCATGCTGCTTTTTTTTTTTTTTTCCTAA [AATCC]	0.538 ± 0.015
TTTTTTGATGATCAGCAGCATTTTTTTTTTTTTTTCCGTT [TTGCC]	0.542 ± 0.036
TTTTTTGATGATCAGCATCATTTTTTTTTTTTTTTCCGTG [GTGCC]	0.533 ± 0.0058
TTTTTTGATGATCAGCATGATTTTTTTTTTTTTTTCCGTC [CTGCC]	0.442 ± 0.019
TTTTTTGATGATCAGCATGCTTTTTTTTTTTTTTTCCGTA [ATGCC]	0.546 ± 0.025
TTTTTTGATGATCATCAGCATTTTTTTTTTTTTTTCCGGT [TGGCC]	0.729 ± 0.028
TTTTTTGATGATCATCATCATTTTTTTTTTTTTTTCCGGG [GGGCC]	0.731 ± 0.012
TTTTTTGATGATCATCATGATTTTTTTTTTTTTTTCCGGC [CGGCC]	0.623 ± 0.025
TTTTTTGATGATCATCATGCTTTTTTTTTTTTTTTCCGGA [AGGCC]	0.773 ± 0.024
TTTTTTGATGATCATGAGCATTTTTTTTTTTTTTTCCGCT [TCGCC]	0.579 ± 0.035
TTTTTTGATGATCATGATCATTTTTTTTTTTTTTTCCGCG [GCGCC]	0.961 ± 0.026

Source: the supplement of paper PMC9428881
